Test results as given in paper PMC12309606.

Legend:
[1] = biological target: Biotinylated C-terminal cysteine-tagged MR1–5-OP-RU (SPR) (human) (UniProt Q95460); assay: SPR
[2] = biological target: MR1 on untreated C1R.MR1 cells (UniProt Q95460); assay: flow cytometry, TCR tetramer staining on C1R.MR1 cells; settings: No Ligand
[3] = biological target: MR1 on C1R.MR1 cells pulsed with 5-OP-RU (UniProt Q95460); assay: as above; settings: 5-OP-RU (10 µM), pulsed for 5 h
[4] = biological target: MR1 on C1R.MR1 cells pulsed with Ac-6-FP (UniProt Q95460); assay: as above; settings: Ac-6-FP (10 µM), pulsed for 5 h
[5] = biological target: M33-64 TCR tetramer; assay: flow cytometry, TCR tetramer staining on C1R.MR1 mutant cells; settings: 1 μM 5-OP-RU for 3 h; stained 30 min at room temperature; parent: est. 6400; read off a plot
[6] = biological target: MAV36 TCR Gln99β alanine mutant on HEK293T cells (human); assay: flow cytometry on cells; PE-labeled MR1–5-OP-RU tetramer (0.5 μg/ml, nonsaturating) staining of HEK293T cells transiently expressing MAV36 TCR or alanine mutants with CD3, 15 min at room temperature; gates normalised for TCR level by anti-Vβ3
[7] = biological target: MAV36 TCR Ser49β alanine mutant on HEK293T cells (human); assay: as above

Row | Substance | response [5] [MFI] | also measured
1 | A-F7 TCR (TRAV1-2–TRBV6-1), soluble |  | Kd [1]: 2700 nM
2 | M33-64 TCR tetramer Tyr95αAla |  | response [2]: 162 MFI; response [3]: 61300 MFI; response [4]: 166 MFI
3 | M33-64 TCR tetramer Tyr95αPhe |  | response [2]: 171 MFI; response [3]: 140000 MFI; response [4]: 20900 MFI
4 | MR1 on C1R.MR1 cells pulsed with 5-OP-RU (from UniProt Q95460) D57A | 6100 | 
5 | MR1 on C1R.MR1 cells pulsed with 5-OP-RU (from UniProt Q95460) H148A | 4600 | 
6 | MR1 on C1R.MR1 cells pulsed with 5-OP-RU (from UniProt Q95460) L151A | 7000 | 
7 | MR1 on C1R.MR1 cells pulsed with 5-OP-RU (from UniProt Q95460) N155A | 1600 | 
8 | MR1 on C1R.MR1 cells pulsed with 5-OP-RU (from UniProt Q95460) R79A | 6600 | 
9 | PE-labeled MR1–5-OP-RU tetramer (from UniProt Q95460 23-341; P61769 21-119) (complex) |  | reduction of tetramer staining against the wildtype TCR [6]: 50%; reduction of tetramer staining against the wildtype TCR [7]: 50%

The next lines start with results.

Row | response [5] [MFI] | Substance | also measured
10 | 2800 | MR1 on C1R.MR1 cells pulsed with 5-OP-RU (from UniProt Q95460) E158A | 
11 | 1300 | MR1 on C1R.MR1 cells pulsed with 5-OP-RU (from UniProt Q95460) L65A | 
12 | 5900 | MR1 on C1R.MR1 cells pulsed with 5-OP-RU (from UniProt Q95460) M72A | 
13 | 4000 | MR1 on C1R.MR1 cells pulsed with 5-OP-RU (from UniProt Q95460) N146A | 
14 | 5400 | MR1 on C1R.MR1 cells pulsed with 5-OP-RU (from UniProt Q95460) Q141A | 
15 | 5000 | MR1 on C1R.MR1 cells pulsed with 5-OP-RU (from UniProt Q95460) R61A | 
16 | 5700 | MR1 on C1R.MR1 cells pulsed with 5-OP-RU (from UniProt Q95460) R167A | 
17 | 5500 | MR1 on C1R.MR1 cells pulsed with 5-OP-RU (from UniProt Q95460) T138A | 
18 | 6400 | MR1 on C1R.MR1 cells pulsed with 5-OP-RU (from UniProt Q95460) V75A | 
